Measurements published in publication PMC5823669, “Multi-chaperone function modulation and association with cytoskeletal proteins are key features of the function of AIP in the pituitary gland” (Oncotarget, 2018).

T1: GST-tagged human AIP p.R304* (human, UniProt O00170 1-303)
T1 construct: AIP, human, UniProt O00170; natural nonsense variant c.910C>T, p.R304*: stop codon in place of R304, truncated protein ending at residue 303; The C-terminal limit 303 follows from the printed p.R304*; also called GST-AIP R304*; not shown: GST, N-terminal, kept
T1 sequence (looked up): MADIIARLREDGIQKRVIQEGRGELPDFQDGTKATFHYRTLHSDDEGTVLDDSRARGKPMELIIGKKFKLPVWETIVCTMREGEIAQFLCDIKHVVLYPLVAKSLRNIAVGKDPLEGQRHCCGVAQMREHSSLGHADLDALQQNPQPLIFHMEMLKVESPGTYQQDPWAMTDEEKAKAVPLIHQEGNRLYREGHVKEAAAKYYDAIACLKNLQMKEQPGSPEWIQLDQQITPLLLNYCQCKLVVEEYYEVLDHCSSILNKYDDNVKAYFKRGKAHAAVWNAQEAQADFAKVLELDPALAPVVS

T2: GST-tagged human AIP p.A299V (human, UniProt O00170 1-330, p.A299V)
T2 construct: AIP, human, UniProt O00170; also called GST-AIP A299V; not shown: GST, N-terminal, kept
T2 sequence (looked up): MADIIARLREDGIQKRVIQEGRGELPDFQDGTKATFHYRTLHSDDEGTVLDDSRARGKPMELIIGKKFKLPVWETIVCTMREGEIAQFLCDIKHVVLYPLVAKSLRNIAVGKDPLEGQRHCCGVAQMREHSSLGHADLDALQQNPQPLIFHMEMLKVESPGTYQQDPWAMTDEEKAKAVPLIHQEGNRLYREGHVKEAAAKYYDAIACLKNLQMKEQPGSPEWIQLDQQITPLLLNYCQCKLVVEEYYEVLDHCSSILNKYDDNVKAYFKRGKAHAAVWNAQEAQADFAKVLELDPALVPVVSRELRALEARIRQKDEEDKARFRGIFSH

B1: TBB5_RAT Tubulin beta-5 chain (Tubb5) (natural protein, R. norvegicus (endogenous in GH3), UniProt P69897 1-444, looked up)
chain: MREIVHIQAGQCGNQIGAKFWEVISDEHGIDPTGTYHGDSDLQLDRISVYYNEATGGKYVPRAILVDLEPGTMDSVRSGPFGQIFRPDNFVFGQSGAGNNWAKGHYTEGAELVDSVLDVVRKEAESCDCLQGFQLTHSLGGGTGSGMGTLLISKIREEYPDRIMNTFSVVPSPKVSDTVVEPYNATLSVHQLVENTDETYCIDNEALYDICFRTLKLTTPTYGDLNHLVSATMSGVTTCLRFPGQLNADLRKLAVNMVPFPRLHFFMPGFAPLTSRGSQQYRALTVPELTQQVFDAKNMMAACDPRHGRYLTVAAVFRGRMSMKEVDEQMLNVQNKNSSYFVEWIPNNVKTAVCDIPPRGLKMAVTFIGNSTAIQELFKRISEQFTAMFRRKAFLHWYTGEGMDEMEFTEAESNMNDLVSEYQQYQDATAEEEEDFGEEAEEEA
notes: Tubulin beta-5 chain, rat, UniProt P69897; also called tubulin beta chain; source: endogenous, GH3 cell lysate
B2: TBB2A_RAT Tubulin beta-2A chain (Tubb2a) (natural protein, R. norvegicus (endogenous in GH3), UniProt P85108 1-445, looked up)
chain: MREIVHIQAGQCGNQIGAKFWEVISDEHGIDPTGSYHGDSDLQLERINVYYNEAAGNKYVPRAILVDLEPGTMDSVRSGPFGQIFRPDNFVFGQSGAGNNWAKGHYTEGAELVDSVLDVVRKESESCDCLQGFQLTHSLGGGTGSGMGTLLISKIREEYPDRIMNTFSVMPSPKVSDTVVEPYNATLSVHQLVENTDETYSIDNEALYDICFRTLKLTTPTYGDLNHLVSATMSGVTTCLRFPGQLNADLRKLAVNMVPFPRLHFFMPGFAPLTSRGSQQYRALTVPELTQQMFDSKNMMAACDPRHGRYLTVAAIFRGRMSMKEVDEQMLNVQNKNSSYFVEWIPNNVKTAVCDIPPRGLKMSATFIGNSTAIQELFKRISEQFTAMFRRKAFLHWYTGEGMDEMEFTEAESNMNDLVSEYQQYQDATADEQGEFEEEEGEDEA
notes: Tubulin beta-2A chain, rat, UniProt P85108; source: endogenous, GH3 cell lysate
B3: NDKA_RAT Nucleoside diphosphate kinase A (Nme1) (natural protein, R. norvegicus (endogenous in GH3), UniProt Q05982 1-152, looked up)
chain: MANSERTFIAIKPDGVQRGLVGEIIKRFEQKGFRLVGLKFIQASEDLLKEHYIDLKDRPFFSGLVKYMHSGPVVAMVWEGLNVVKTGRVMLGETNPADSKPGTIRGDFCIQVGRNIIHGSDSVESAEKEISLWFQPEELVDYKSCAQNWIYE
notes: Nucleoside diphosphate kinase A, rat, UniProt Q05982; also called NME/NM23 nucleoside diphosphate kinase 1; source: endogenous, GH3 cell lysate

Tests used:
[1] = biological target: T1, GST-tagged human AIP p.R304*; test: affinity purification with mass spectrometry; GST pull-down: 10 ug of purified GST-AIP bait (WT or variant) against 2 mg total protein of GH3 cell lysate; eluates of four experiments pooled; TMTsixplex labelling, Orbitrap MS; peptide intensities minus the GST control, variants given as fold of the WT experiment (WT = 1); details: one partner purified
[2] = biological target: T2, GST-tagged human AIP p.A299V; test: as above; details: one partner purified

| Binder | normalized intensity value (fold of the WT AIP pull-down) [1] | normalized intensity value (fold of the WT AIP pull-down) [2] |
| --- | --- | --- |
| B1 | 0.2 fold of WT |  |
| B2 | 0.3 fold of WT |  |
| B3 |  | 0.2 fold of WT |
